By Kd is commonly meant a measure of binding affinity in units of concentration. High values mean weaker binding, low ones tighter binding.

The values below come from patent US20220332804A1 (CSL INNOVATION, published 2022).

In one test the target is T1, human C2 R688A (human, UniProt P06681 21-752).
T1 sequence: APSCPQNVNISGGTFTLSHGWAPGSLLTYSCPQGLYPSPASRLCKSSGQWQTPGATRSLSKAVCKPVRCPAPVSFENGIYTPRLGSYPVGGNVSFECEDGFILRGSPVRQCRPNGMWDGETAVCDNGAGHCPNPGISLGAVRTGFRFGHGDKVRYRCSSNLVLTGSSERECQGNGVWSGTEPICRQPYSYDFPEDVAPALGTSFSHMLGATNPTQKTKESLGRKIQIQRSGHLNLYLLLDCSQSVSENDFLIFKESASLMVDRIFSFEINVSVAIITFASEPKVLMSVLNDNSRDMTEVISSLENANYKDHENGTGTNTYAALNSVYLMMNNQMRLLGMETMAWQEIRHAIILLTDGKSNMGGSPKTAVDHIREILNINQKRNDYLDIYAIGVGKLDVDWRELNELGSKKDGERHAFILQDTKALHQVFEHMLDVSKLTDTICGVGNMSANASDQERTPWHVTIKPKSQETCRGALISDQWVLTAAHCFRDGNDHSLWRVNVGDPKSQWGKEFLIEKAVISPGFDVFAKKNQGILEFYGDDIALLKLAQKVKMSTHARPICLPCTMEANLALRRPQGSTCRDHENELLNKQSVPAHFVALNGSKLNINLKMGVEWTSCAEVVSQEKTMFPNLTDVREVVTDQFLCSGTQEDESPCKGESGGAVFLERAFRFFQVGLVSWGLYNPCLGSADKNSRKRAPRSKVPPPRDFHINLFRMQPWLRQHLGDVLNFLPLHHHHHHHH
Put plainly: SPR, KD relative to WT C2.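 Note: biacore SPR at 37 °C, anti-C2 mAbs captured on anti-human IgG chips with alanine or serine point mutants of C2 as analyte, KD from 1:1 fit compared with wild-type C2.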 In general terms: In SPR one partner is held on a chip, and binding of the other changes the refractive index at the surface.

In a further test the target is T2, human C2 G432A (human, UniProt P06681 21-752).
T2 sequence: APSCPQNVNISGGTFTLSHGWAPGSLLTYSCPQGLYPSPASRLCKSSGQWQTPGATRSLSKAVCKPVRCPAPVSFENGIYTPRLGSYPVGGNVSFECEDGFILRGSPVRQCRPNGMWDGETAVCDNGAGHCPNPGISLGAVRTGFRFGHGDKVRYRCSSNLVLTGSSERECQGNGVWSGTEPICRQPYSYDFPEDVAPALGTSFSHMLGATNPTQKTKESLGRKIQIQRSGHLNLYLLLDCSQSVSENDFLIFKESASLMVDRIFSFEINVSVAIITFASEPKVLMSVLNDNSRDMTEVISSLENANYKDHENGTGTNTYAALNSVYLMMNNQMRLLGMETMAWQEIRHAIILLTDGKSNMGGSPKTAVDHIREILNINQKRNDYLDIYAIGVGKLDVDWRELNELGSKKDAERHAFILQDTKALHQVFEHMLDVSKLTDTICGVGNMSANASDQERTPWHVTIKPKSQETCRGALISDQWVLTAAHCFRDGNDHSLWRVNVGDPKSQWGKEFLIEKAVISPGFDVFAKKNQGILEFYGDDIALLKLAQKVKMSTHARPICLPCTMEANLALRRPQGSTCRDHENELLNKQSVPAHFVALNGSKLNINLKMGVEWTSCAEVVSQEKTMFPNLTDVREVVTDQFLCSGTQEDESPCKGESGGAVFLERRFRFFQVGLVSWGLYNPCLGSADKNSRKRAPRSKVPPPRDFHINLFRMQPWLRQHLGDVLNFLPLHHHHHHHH
In words: SPR, KD relative to WT C2.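 Note: biacore SPR at 37 °C, anti-C2 mAbs captured on anti-human IgG chips with alanine or serine point mutants of C2 as analyte, KD from 1:1 fit compared with wild-type C2.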

The target in another test is T3, human C2 L271A (human, UniProt P06681 21-752).
T3 sequence: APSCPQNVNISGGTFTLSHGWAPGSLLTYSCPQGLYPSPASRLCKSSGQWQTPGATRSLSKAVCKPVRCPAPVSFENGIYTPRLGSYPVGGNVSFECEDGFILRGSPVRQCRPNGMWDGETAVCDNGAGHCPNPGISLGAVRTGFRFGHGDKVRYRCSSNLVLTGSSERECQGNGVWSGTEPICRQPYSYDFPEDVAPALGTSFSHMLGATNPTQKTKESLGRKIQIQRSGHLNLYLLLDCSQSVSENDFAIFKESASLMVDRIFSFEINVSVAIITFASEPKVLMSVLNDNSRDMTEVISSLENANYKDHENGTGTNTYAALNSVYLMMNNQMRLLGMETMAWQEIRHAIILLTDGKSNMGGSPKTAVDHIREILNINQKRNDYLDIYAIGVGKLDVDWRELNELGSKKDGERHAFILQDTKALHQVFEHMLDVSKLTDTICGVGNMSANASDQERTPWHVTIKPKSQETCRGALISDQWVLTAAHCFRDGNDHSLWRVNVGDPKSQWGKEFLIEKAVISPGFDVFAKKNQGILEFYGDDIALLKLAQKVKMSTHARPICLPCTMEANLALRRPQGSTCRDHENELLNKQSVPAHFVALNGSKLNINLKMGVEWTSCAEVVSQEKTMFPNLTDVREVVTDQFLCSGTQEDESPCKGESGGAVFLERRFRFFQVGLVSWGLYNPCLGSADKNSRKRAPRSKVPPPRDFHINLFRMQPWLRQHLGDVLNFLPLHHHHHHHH
In words: SPR, KD relative to WT C2.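 Note: biacore SPR at 37 °C, anti-C2 mAbs captured on anti-human IgG chips with alanine or serine point mutants of C2 as analyte, KD from 1:1 fit compared with wild-type C2.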

A further test deals with T4, human complement C2 (human, UniProt P06681 21-752).
T4 construct: Recombinant full-length human C2 with C-terminal 8x His tag, purified from Expi293F supernatant; also called human C2; huC2
T4 sequence: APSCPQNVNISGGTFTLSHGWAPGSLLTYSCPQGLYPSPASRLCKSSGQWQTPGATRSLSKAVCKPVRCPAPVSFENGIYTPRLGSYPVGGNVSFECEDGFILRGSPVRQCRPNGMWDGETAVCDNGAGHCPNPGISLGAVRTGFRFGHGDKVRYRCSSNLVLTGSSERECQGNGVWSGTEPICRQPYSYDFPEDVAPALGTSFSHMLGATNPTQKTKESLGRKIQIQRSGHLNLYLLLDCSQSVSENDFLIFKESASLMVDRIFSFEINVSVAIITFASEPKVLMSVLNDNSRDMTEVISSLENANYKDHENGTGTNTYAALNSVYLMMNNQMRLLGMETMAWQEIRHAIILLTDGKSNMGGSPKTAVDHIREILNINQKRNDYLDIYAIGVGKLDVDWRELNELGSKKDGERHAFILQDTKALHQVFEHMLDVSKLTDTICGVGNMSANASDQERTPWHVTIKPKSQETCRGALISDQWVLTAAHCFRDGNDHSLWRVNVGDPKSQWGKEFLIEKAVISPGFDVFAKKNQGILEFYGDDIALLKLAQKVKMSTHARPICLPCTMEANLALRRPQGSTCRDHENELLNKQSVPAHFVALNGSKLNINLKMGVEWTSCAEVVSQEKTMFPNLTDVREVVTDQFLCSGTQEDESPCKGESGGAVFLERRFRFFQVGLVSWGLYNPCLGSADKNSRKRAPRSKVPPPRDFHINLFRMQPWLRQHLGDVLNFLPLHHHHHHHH
Put plainly: SPR, mAb captured, huC2 analyte, neutral pH; pH 7.

B1: RF16-242 (antibody, human IgG4 S228P, lambda, V domains shown)
VH: EVQLLQSGAEVKKPGESLKISCKGSGYSFTSYWIGWVRQMPGKGLEWMGIIYPGDSDTRYSPSFQGQVTISADKSISTAYLQWSSLKASDTAMYYCARRGHYGDYFDYWGQGTLVTVSS
VL: SYELTQPPSVSVSPGQTARITCSGDALPKKYAYWYHQKSGQAPVLVIYEDRRRPSEIPERFSGSSSGTMATLTITGAQVEDEGVYFCYSRDRAGNQRVFGGGTQLTVLG
notes: pH-dependent anti-C2 antibody from a phage display library
As to B1, the Fold diff was determined as 2 fold in the test with human C2 R688A, 1 fold with human C2 G432A and 1 fold in the test with human C2 L271A.

B2: RF16-226 (antibody)
heavy: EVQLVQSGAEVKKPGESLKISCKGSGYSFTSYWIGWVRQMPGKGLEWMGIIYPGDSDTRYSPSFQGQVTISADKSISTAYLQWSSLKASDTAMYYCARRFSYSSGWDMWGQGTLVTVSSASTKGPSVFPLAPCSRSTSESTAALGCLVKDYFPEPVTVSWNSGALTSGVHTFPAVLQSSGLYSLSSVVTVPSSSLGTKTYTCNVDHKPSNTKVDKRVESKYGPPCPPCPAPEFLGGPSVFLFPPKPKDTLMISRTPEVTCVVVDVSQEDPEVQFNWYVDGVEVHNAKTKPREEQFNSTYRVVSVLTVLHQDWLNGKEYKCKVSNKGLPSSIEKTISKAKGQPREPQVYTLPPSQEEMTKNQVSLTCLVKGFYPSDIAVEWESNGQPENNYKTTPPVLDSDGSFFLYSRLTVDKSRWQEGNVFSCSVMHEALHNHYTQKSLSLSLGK
light: SYELTQPPSVSVSPGQTARITCSGDALTSKYVAWYQQKSGLAPLLVIYEDTRRPSGIPAKFSGSSSGSVATLTISGAHGDDEADYYCYSTDASGHQRVFGGGTKLTVLSQPKAAPSVTLFPPSSEELQANKATLVCLISDFYPGAVTVAWKADGSPVKAGVETTKPSKQSNNKYAASSYLSLTPEQWKSHRSYSCQVTHEGSTVEKTVAPTECS
Regarding B2, in the test with human complement C2, the Kd is about 9 nM.
